Paper PMC3962391, “Cation Diffusion Facilitators Transport Initiation and Regulation Is Mediated by Cation Induced Conformational Changes of the Cytoplasmic Domain” (PLoS ONE, 2014)
Numbering of substitutions follows the chain as printed. In names and notes the source's numbering stands.

B1: MamM-CTD (residues 215-318) (domain or fragment, Magnetospirillum gryphiswaldense MSR-1, UniProt V6F235 215-318, looked up)
chain: EAVQNRIVEAAERVPGVRGVIHLRARYVGQDIWADMIIGVDPENTVEQAHEICEAVQAAVCGKIRRIESLHVSAEAREIGDTTKPSFSDQPLSFDEVMLSKVDN
notes: MamM, cation diffusion facilitator of the magnetosome membrane, Magnetospirillum gryphiswaldense MSR-1; Uniformly 13C,15N labelled for the solid-state NMR; also called apo-MamM-CTD; source: purified
B2: C-terminal truncation MamM-CTD mutant (residues 215-293) (domain or fragment, Magnetospirillum gryphiswaldense MSR-1, UniProt V6F235 215-293, looked up)
chain: EAVQNRIVEAAERVPGVRGVIHLRARYVGQDIWADMIIGVDPENTVEQAHEICEAVQAAVCGKIRRIESLHVSAEAREI
notes: MamM, Magnetospirillum gryphiswaldense MSR-1; source: purified
B3: MamM-CTD V260P (domain or fragment, Magnetospirillum gryphiswaldense MSR-1, UniProt V6F235 215-318, looked up)
chain: B1 chain with V46P
notes: MamM, Magnetospirillum gryphiswaldense MSR-1; also called V260P MamM-CTD mutant; recombinant MamM-CTD V260P; source: recombinant

Target: the molecule itself
Test: SEC; Superdex200; apo proteins; elution volume against a calibration curve of marker proteins

Row | Protein | stoichiometry N
1 | B1 | 2
2 | B2 | 2
3 | B3 | 2
